Test results from US20210403565A1 (BIOATLA, published 2021).
Where a chain is given by its changes, count along the chain named. Blank lines part the entries; values can stand above or below the binder they belong to.

Columns and labels:
[1] = target: T1, recombinant human CTLA4 extracellular domain (human, UniProt P16410 36-161); experiment: ELISA, immobilised huCTLA-4, pH 6.0, mean +/- SD
T1 construct: extracellular domain; also called huCTLA-4
T1 sequence (looked up): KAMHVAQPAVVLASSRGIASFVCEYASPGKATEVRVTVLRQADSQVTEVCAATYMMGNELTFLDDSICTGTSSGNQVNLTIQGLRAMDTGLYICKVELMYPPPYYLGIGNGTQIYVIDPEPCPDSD
Method: EC₅₀ values at pH 6.0 for binding to human CTLA4 were calculated using the nonlinear fit model (variable slope, four parameters) of GraphPad Prism version 7.03.

[2] = target: T2, cynomolgus CTLA4 expressed on the cell surface of CHO cells (cynomolgus, UniProt G7PL88 36-223); experiment: FACS on CHO-cynoCTLA4 cells, pH 6.0, mean
T2 construct: whole, on cells; also called CHO-cynoCTLA4
T2 sequence: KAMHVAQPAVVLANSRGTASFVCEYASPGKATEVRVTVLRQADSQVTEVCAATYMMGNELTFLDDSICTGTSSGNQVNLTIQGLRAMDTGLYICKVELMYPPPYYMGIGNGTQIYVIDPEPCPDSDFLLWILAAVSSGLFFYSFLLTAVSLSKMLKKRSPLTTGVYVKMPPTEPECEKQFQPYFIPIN
Method: The amount of antibodies bound on the cells was quantified using anti-human IgG antibody conjugated to fluorophores. EC₅₀ values at pH 6.0 and 7.4 for binding to cells were calculated using the nonlinear fit (variable slope, four parameters) model built into GraphPad Prism software (version 7.03). The expression levels of human CTLA4 or cynomolgus CTLA4 on the surface of the CHO cells were determined using a BD QuantiBRITE™ PE kit.

[3] = target: T3, human CTLA4 expressed on the cell surface of CHO cells (human, UniProt P16410 36-223); experiment: FACS competition on CHO-huCTLA4: antibody titrated against a fixed concentration of hB7-1 (hCD80), bound hB7-1 detected, % competition, plateau about 97 %; pH 6.0 per the text; unit from the axis CTLA4 Ab concentration Log(ng/mL)
T3 construct: whole, on cells; also called CHO-huCTLA4; huCTLA4
T3 sequence (looked up): T2 sequence with N14S, T18I, M106L

[4] = target: T1, recombinant human CTLA4 extracellular …; experiment: ELISA, wells coated with human CTLA4, assay pH 6.0; lot 6978 in Tris buffer, T2W; unit from the axis Log[ng/mL]
Method: (§1) Both ELISA and FACS analysis were used to measure the binding activity. […] The amount of bound antibodies was quantified using anti-human IgG antibody conjugated to HRP. The absorbance at 450 nm in each measurement was proportional to the amount of antibodies bound. […] EC50 value (in ng/mL) for binding to human CTLA4 was determined by absorbance at 450 nm against antibody concentration with Prism variable slope of four-parameter dose-response curve, which was calculated using the nonlinear fit (variable slope, four parameters) model built into GraphPad Prism software (version 7.03). The buffers tested included His buffer (His), Tris buffer (Tris), Glutamine buffer (Glu) and no buffer.

[5] = target: T1, recombinant human CTLA4 extracellular …; experiment: SPR, human CTLA4 ECD immobilised, pH 7.4, run 2
Method: (§2) The CTLA4 extracellular domain (human or cynomolgus) was immobilized on the surface of a sensor chip. […] The binding kinetics were calculated using a 1:1 Longmuir model built into the analysis software.

[6] = target: T3, human CTLA4 expressed on the cell …; experiment: FACS, cells expressing human CTLA4, assay pH 7.4, MFI; lot 6978 in His buffer, T2W; unit from the axis Log[ng/mL]
Method: (§3) The amount of bound antibodies was quantified using anti-human IgG antibody conjugated to fluorophores. The MFI in each reaction was proportional to the amount of antibodies bound. The EC₅₀ value (in ng/mL) for binding to human CTLA4 on cells was determined by MFI of the singlets population against antibody concentration with a Prism variable slope of four-parameter dose-response curve, which was calculated using the nonlinear fit (variable slope, four parameters) model built into GraphPad Prism software (version 7.03).

[7] = target: T3, human CTLA4 expressed on the cell …; experiment: FACS, cells expressing human CTLA4, assay pH 7.4, MFI; lot 6978 control without test buffer; same column repeated in FIG. 10E and FIG. 10F; unit from the axis Log[ng/mL]
Method: as §3

[8] = target: T1, recombinant human CTLA4 extracellular …; experiment: SPR, human CTLA4 ECD immobilised, pH 6.0, run 1
Method: as §2

[9] = target: T1, recombinant human CTLA4 extracellular …; experiment: SPR, human CTLA4 ECD immobilised, pH 6.0, run 2
Method: as §2

[10] = target: T3, human CTLA4 expressed on the cell …; experiment: FACS competition on CHO-huCTLA4: antibody titrated against a fixed concentration of hB7-2 (hCD86), bound hB7-2 detected, % competition, plateaus about 48 to 57 %; pH 6.0 per the text; unit from the axis CTLA4 Ab concentration Log(ng/mL)
[11] = target: T1, recombinant human CTLA4 extracellular …; experiment: ELISA, wells coated with human CTLA4, assay pH 6.0; lot 6972 in Tris buffer, T0; unit from the axis Log[ng/mL]
Method: as §1

[12] = target: T3, human CTLA4 expressed on the cell …; experiment: FACS, cells expressing human CTLA4, assay pH 7.4, MFI; lot 6972 in Tris buffer, T0; unit from the axis Log[ng/mL]
Method: as §3

EC50 [1]: 0.00978 mg/L | EC50 [2]: 0.403 mg/L | EC50 [3]: 0.567 mg/L | EC50 [4]: 0.014 mg/L | Kd [5]: 14.9 nM | EC50 [6]: 1.18 mg/L | EC50 [7]: 0.868 mg/L | Kd [8]: 0.365 nM | koff [8]: 0.0012 s⁻¹ | kon [8]: 3.29e+06 M⁻¹ s⁻¹ | Kd [9]: 0.463 nM | koff [9]: 0.00154 s⁻¹ | kon [9]: 3.32e+06 M⁻¹ s⁻¹ | EC50 [10]: 0.456 mg/L
B1: BA-087-08-32 (antibody, V domains shown)
VH: EVQLVQSGAEVKKPGATVKISCKVSGFTFSHYTMHWIRQSPSRGLEWLGFISYDGNYKYYADSVKGRFTISRDNAKNSLYLQMNSLRAEDTAVYYCARTGWLGPFDYWGQGTLVTVSS
VL: EIVMTQSPATLSVSPGERATLSCRASQSVGSSYLAWYQQKPGKAPKLLIYGAFSRATGVPSRFSGSGSGTDFTLTISSLQPEDFATYYCQQDGSSPWTFGQGTKVEIK
notes: Detected with anti-human IgG and a molecular weight of 146 kDa was used in SPR, so it was tested as a whole IgG; also called BA-087-08-032; BA-087-08-32 (# 6978)

EC50 [11]: 0.00591 mg/L | EC50 [1]: 0.00818 mg/L | EC50 [12]: 0.681 mg/L | EC50 [2]: 0.316 mg/L | EC50 [3]: 0.745 mg/L | Kd [5]: 0.781 nM | koff [5]: 0.000669 s⁻¹ | kon [5]: 857000 M⁻¹ s⁻¹ | Kd [8]: 0.472 nM | koff [8]: 0.000631 s⁻¹ | kon [8]: 1.34e+06 M⁻¹ s⁻¹ | Kd [9]: 0.481 nM | koff [9]: 0.000604 s⁻¹ | kon [9]: 1.26e+06 M⁻¹ s⁻¹ | EC50 [10]: 0.592 mg/L
B2: BA-087-05-19 (antibody, V domains shown)
VH: EVQLVESGGGLVQPGGSLRLSCAASGFTFSHYTMHWVRQAPGKGLEWVSFISYDGNNKYYADSVKGRFTISRDNSKNTLYLQMNSLRAEDTAVYYCARTGWLGPFDYWGQGTLVTVSS
VL: AIQLTQSPSSLSASVGDRVTITCRASQYVGSSYLAWYLQKPGQSPQLLIYGAFSRATGIPARFSGSGSGTEFTLTISSLQSEDFAVYYCQQDGSSPWTFGQGTKVEIK
notes: Detected with anti-human IgG and a molecular weight of 146 kDa was used in SPR, so it was tested as a whole IgG; also called BA-087-05-019; BA-087-05-19 (# 6972)
